Laboratory results: the RNAGym collection of RNA variant scans (doi:10.7554/elife.80360)

B1: HDV Ribozyme (parent)
chain: GGCCGGCAUGGUCCCAGCCUCCUCGCUGGCGCCGGCUGGGCAACAUUCCGAGGGGACCGUCCCCUCGGUAAUGGCGAAUGGGACCCA

Variants of: B1
Test: self-cleavage, relative activity (ratio to wild type); higher = more cleavage; co-transcriptional

Variant	self-cleavage
GGCCGGCAUGGUCCCAGCCUCCUCGCUGGCGCCGGCUGGGCAACAUUCCGAGGAGACCGUCCCCUCGGUAAUGGCGAAUGGGCCCCA [G54A A83C]	0.277
GGCCGGCAUGGUCCCAGCCUCCUCGCUGGCGCCGGCUGGGCAACAUUUCGAGGGGACCGUCCCAUCGGUAAUGGCGAAUGGGACCCA [C48U C64A]	0.554
UGCCGGCAUGGUCGCAGCCUCCUCGCUGGCGCCGGCUGGGCAACAUUCCGAGGGGACCGUCCCCUCGGUAAUGGCGAAUGGGACCCA [G1U C14G]	0.397
GGCCGGCAUGGUCCCAGCCUCCUCGCUGGCGUCGGCUGGACAACAUUCCGAGGGGACCGUCCCCUCGGUAAUGGCGAAUGGGACCCA [C32U G40A]	0.987
GGCCGGCAUAGUCCCAGCCUCCUCGCAGGCGCCGGCUGGGCAACAUUCCGAGGGGACCGUCCCCUCGGUAAUGGCGAAUGGGACCCA [G10A U27A]	0.587
GGCCGGCAUGGUCCCAGCCUCCUCGCUGGCGCCGGCUGGGCAACAUUCCGAGGGGACCGUCCCCUCCGUAAUGGCGAAUGGGACCCA [G67C]	0.976
GCCCGGCAUGGUCCCAGCCUCCUCGCUGGCGCCGGCUGGGCAACAUUCCGAGGGGACCGACCCCUCGGUAAUGGCGAAUGGGACCCA [G2C U60A]	0.0779
GGCCGGCAUGGUCCCAGCCUCCUCGCUGGCGCCGGCUGGGCAACAUUCCGACGGGACCGUCCCCGCGGUAAUGGCGAAUGGGACCCA [G52C U65G]	1.04
GGCCGGCAUGGUCCCAGCCUUCUCGCUGGCGCCGGGUGGGCAACAUUCCGAGGGGACCGUCCCCUCGGUAAUGGCGAAUGGGACCCA [C21U C36G]	0
GGCCGUCAUGGUCCCAGCCUCCUCGCUGGCGCCGGCUGGGCAACAUUCCGAGGGGACCGUCCCCUCGGUAAUGGCGAAUGGGUCCCA [G6U A83U]	0.256
GGUCGGCAUGGUCCCAGCCUCCUCGCUGGCGCCGGCUGGGCAACAUGCCGAGGGGACCGUCCCCUCGGUAAUGGCGAAUGGGACCCA [C3U U47G]	0.594
GGCCGGCAUGGUCCCUGCCUCCUCGCUGGCGCCGGCUGGGCAACAUUCCGAGGGGACCGUCCCCUCGGUAAUGGCGAAUGGGAACCA [A16U C84A]	0.665
GGCCGGCAUGGUCCCAGCCUCCUCGCUGGCGCCGGUUGGGCAACAUUCCGAGGGGACGGUCCCCUCGGUAAUGGCGAAUGGGACCCA [C36U C58G]	0.759
GGCCGGCAUGGUCCCAGCCUCCUCGCUGGCGCCGGCUGGGCAACAUUCCGAAGGGACCGUCCCCUCGGUAAUGGCCAAUGGGACCCA [G52A G76C]	1.24
GGCCGGCAUGGUCCCAGCCUCCUCGCUGGCGCCGGCUGGGCAACAUUCCGAGGGGACCGUCCCCUCGGUAAUGGUGAAUGGGACACA [C75U C85A]	0.0959
GGCCGGCAUGGUCCCAGCCUCCUCGCUGUCGCCGGCUGGGCAACAUUCCGAGGCGACCGUCCCCUCGGUAAUGGCGAAUGGGACCCA [G29U G54C]	0.0282

Variant	self-cleavage
GGCCUGCAUGGUCCCAGCCUCCUCGCUGGCGCCGGCUGGGGAACAUUCCGAGGGGACCGUCCCCUCGGUAAUGGCGAAUGGGACCCA [G5U C41G]	0.111
GGCCGGCAUGGUCCCAGCCUCCUCGCUGGCGACGGCUGGGCAACAUUCCGAUGGGACCGUCCCCUCGGUAAUGGCGAAUGGGACCCA [C32A G52U]	0.134
GGCCGGCAUGGCCCCAGCCUCCUCGCUGGCGCCGGCUGGGCAACAUUCCGAGGGGACCGUCCCCUCGGUAAUGGCGAAUGGAACCCA [U12C G82A]	0.0923
GGCCGGCAUGAUCCCAGCCUCCUCGCUGGCGCCGGCUGGGCAACAUUCCGAGGGGACCGUCCGCUCGGUAAUGGCGAAUGGGACCCA [G11A C63G]	0.514
UGCCGGAAUGGUCCCAGCCUCCUCGCUGGCGCCGGCUGGGCAACAUUCCGAGGGGACCGUCCCCUCGGUAAUGGCGAAUGGGACCCA [G1U C7A]	0.169
GGCCGGCAUGGUCCCAGCCUACUCGCUGGCGCCGGCUGGGCAACAUUCCGAGGGGACCGUCCCCUCGGUAAUGCCGAAUGGGACCCA [C21A G74C]	0.126
GGCCGGCAUGGUCCCAGGCUCCUCGCCGGCGCCGGCUGGGCAACAUUCCGAGGGGACCGUCCCCUCGGUAAUGGCGAAUGGGACCCA [C18G U27C]	0.237
GGCCGGCAUGGUCCCAGCCUCCUCGCUGGCGCCGGCAGGGCAACAUUCCGAGGGGACCGUCCCCUCGGUAAUGGCGACUGGGACCCA [U37A A78C]	0.0997
GGCCGGCAUGGUCCCAGCCUCCUCGCUGGCGCCGGCUGGGCAACAUUCCGCGGGGACCGUCCCCUCGGUAAUGGCGAAUGGGAUCCA [A51C C84U]	0.831
GGCCGGCAUGGUCCCAGCGUCCUCGCUGGCGCAGGCUGGGCAACAUUCCGAGGGGACCGUCCCCUCGGUAAUGGCGAAUGGGACCCA [C19G C33A]	0.111
GGCCGGCAUGGUCCCAGCCUCCUCGCUGGCGUCCGCUGGGCAACAUUCCGAGGGGACCGUCCCCUCGGUAAUGGCGAAUGGGACCCA [C32U G34C]	0.0875
GGCCGGCAUGGUCCCAGCCUCCUCGCUGGCGGCGGCUGGGCAACAUUCCGAGGGGACCGUCCCCUCGGUAAUGGCGAAUGUGACCCA [C32G G81U]	0.0639
GGCCGGCAUGGUCCCAGCCUCCUCGCUGGCGCCGGCUAGGCAACAUUCCGAGGGGACCGUCCCCUCGGUAAUUGCGAAUGGGACCCA [G38A G73U]	0.0978
GGCCGGCAUGGUCCCAGCCUCCUCGCUGGCGCCGUCUGGGCAACAUUCCGAGGGGACCGUGCCCUCGGUAAUGGCGAAUGGGACCCA [G35U C61G]	0.286
GGCCGGCAUGGGCCCAGCCUCCUCGCUCGCGCCGGCUGGGCAACAUUCCGAGGGGACCGUCCCCUCGGUAAUGGCGAAUGGGACCCA [U12G G28C]	0
GGCCGGCAUGGUCCCAGCCUCCUCGCUGGCGCCGGCUGGGCAACAUUCCGAGGGGACCCUCCCCUCGGUAAUGGCGAAUCGGACCCA [G59C G80C]	0.222
